Assays:
HIV-1 Rev L64A (HIV-1) = HIV-1 Rev L64A (HIV-1) (UniProt P04618)
HIV-1 Rev P31A (HIV-1) = HIV-1 Rev P31A (HIV-1) (UniProt P04618); assay: AUC
[1] = target: T1, HIV-1 Rev, wild type (HIV-1), P04618; assay: AUC; settings: remark: other sources report otherwise
T1 chain: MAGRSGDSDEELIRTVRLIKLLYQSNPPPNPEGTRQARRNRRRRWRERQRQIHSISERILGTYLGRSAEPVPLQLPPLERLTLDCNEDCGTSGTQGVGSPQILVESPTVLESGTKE

HIV-1 Rev, wild type = HIV-1 Rev, wild type (HIV-1, UniProt P04618); assay: crystal structure

HIV-1 Rev L64A (from UniProt P04618 1-116) (natural protein)
stoichiometry N (HIV-1 Rev L64A (HIV-1)): 2

HIV-1 Rev P31A (from UniProt P04618 1-116) (natural protein)
stoichiometry N (HIV-1 Rev P31A (HIV-1)): 4

B1: HIV-1 Rev, wild type, P04618 1-116 (natural protein)
chain: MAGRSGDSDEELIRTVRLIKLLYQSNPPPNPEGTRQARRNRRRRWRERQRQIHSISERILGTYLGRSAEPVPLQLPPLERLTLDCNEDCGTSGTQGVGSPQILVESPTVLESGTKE
stoichiometry N [1]: 4

B2: anti-Rev single-chain antibody variable fragment (scFv) (scFv, V domains shown)
VH: QEQLVESGGRLVTPGTALTLTCKVSGFSLSGFWLNWVRQAPGKGLEWVGAIYRGSGSEWYASWAKGRFTISDTSTTVTLKLTSPTTEDTATYFCAADTTDNGYFTIWGPGTLVTVSS
VL: ELVMTQTPSSVSEPVGGTVTIKCQASQSISSWLSWYQQKPGQPPKLLIYDASNLASGVPSRFMGSGSGTEYTLTISGVQREDAATYYCLGGYPAASYRTAFGGGTELEII
binding result (HIV-1 Rev, wild type): binds

Reference: article PMC4938712 (Structure (London, England : 1993), 2016)
